The text below walks through data of article PMC3901395, “Multivalent interactions of the SUMO-interaction motifs in RING finger protein 4 determine the specificity for chains of the SUMO” (Biochemical Journal, 2013).

One assay addresses 2xSUMO1ΔN15 (di-SUMO1). Nature of the assay: ITC binding to linear di-SUMO1 (2xSUMO1ΔN15). The note with it: 50 mM Tris/HCl pH 7.5, 150 mM NaCl, 2 mM DTT, 5% glycerol, 25°C, averaged from two to six titrations, read-out: Dissociation constant (KD), 2xSUMO1ΔN15 (linear di-SUMO1). From the text:
(§1) For expression in Escherichia coli, linear poly-SUMO chains were generated as described previously with slight modifications. After the combined PCR/ligation reaction, the 4×SUMO2-ΔN11 or 4×SUMO1-ΔN15 DNA polymers were separated from smaller polymers by agarose gel electrophoresis and individually extracted (Macherey–Nagel). These were then subjected to a second PCR with primers to create BamHI and XhoI restriction sites, a C-terminal GG motif and a stop codon. The resulting fragments coding for di-, tri- and tetra-SUMO2-ΔN11 or SUMO1-ΔN15 chains were amplified and cloned into pGEX-4T2. […] Each monomer in these chains is separated by RS replacing the natural GG motif. A similar strategy was used to design C-terminally GFP–HA2-tagged linear poly-SUMOs in the copper-inducible Ycplac22 vector for expression in S. cerevisiae. […]
(§2) The mono-SUMOs and linear poly-SUMO1 and poly-SUMO2 proteins as well as all RNF4 constructs were expressed as GST-fusion proteins from E. coli Rosetta™ 2(DE3)pLysS cells (Novagen) cultivated in LB medium with 100 μg/ml ampicillin and 30 μg/ml chloramphenicol after induction with 0.1 mM IPTG at 20°C for 12 h. […]
(§3) Binding of peptides and proteins to SUMOs was investigated by ITC using either a VP-ITC or an ITC200 (GE Healthcare). […] Protein concentrations were determined by measuring the absorption at 280 nm. […]

Assay [1] concerns the target 4xSUMO1ΔN15 (tetra-SUMO1). As to the kind of experiment: ITC binding to linear tetra-SUMO1 (4xSUMO1ΔN15). The note with it: 50 mM Tris/HCl pH 7.5, 150 mM NaCl, 2 mM DTT, 5% glycerol, 25°C, averaged from two to six titrations, read-out: Dissociation constant (KD), 4xSUMO1ΔN15 (tetra-SUMO1).
Excerpt: as §1, §2, §3

In another assay the target is T1, 2xSUMO2ΔN11 (di-SUMO2) (Homo sapiens, UniProt P61956).
T1 construct: Each monomer in these chains is separated by RS replacing the natural GG motif; a C-terminal GG motif and a stop codon; GST (N, cleaved yes); made in house; host or cells: E. coli Rosetta 2(DE3)pLysS
Nature of the assay: ITC binding to linear di-SUMO2 (2xSUMO2ΔN11). The note with it: 50 mM Tris/HCl pH 7.5, 150 mM NaCl, 2 mM DTT, 5% glycerol, 25°C, averaged from two to six titrations, read-out: Dissociation constant (KD), 2xSUMO2ΔN11 (linear di-SUMO2).
Excerpt: as §1, §2, §3

Another assay deals with 3xSUMO2ΔN11 (tri-SUMO2). Nature of the assay: ITC binding to linear tri-SUMO2 (3xSUMO2ΔN11).
Excerpt: as §1, §2, §3

Assay [2] addresses 4xSUMO2ΔN11 (tetra-SUMO2). As to the kind of experiment: ITC binding to linear tetra-SUMO2 (4xSUMO2ΔN11). The note with it: 50 mM Tris/HCl pH 7.5, 150 mM NaCl, 2 mM DTT, 5% glycerol, 25°C, averaged from two to six titrations, read-out: Dissociation constant (KD), 4xSUMO2ΔN11 (tetra-SUMO2).
Excerpt: as §1, §2, §3

The target of assay [3] is native 2xSUMO2 ('native' Lys^11-linked di-SUMO2 chains). Nature of the assay: ITC binding to native Lys^11-linked di-SUMO2. The note with it: 50 mM Tris/HCl pH 7.5, 150 mM NaCl, 2 mM DTT, 5% glycerol, 25°C, averaged from two to six titrations, chains produced by in vitro SUMOylation, read-out: Dissociation constant (KD), native Lys^11-linked di-SUMO2. The procedure: The mono-SUMOs and linear poly-SUMO1 and poly-SUMO2 proteins as well as all RNF4 constructs were expressed as GST-fusion proteins from E. coli Rosetta™ 2(DE3)pLysS cells (Novagen) cultivated in LB medium with 100 μg/ml ampicillin and 30 μg/ml chloramphenicol after induction with 0.1 mM IPTG at 20°C for 12 h. Cells were lysed by sonication in GST-buffer I (50 mM Tris/HCl, pH 7.5, 150 mM NaCl and 2 mM DTT) in the presence of protease inhibitors (1 μg/ml aprotinin, 1 μg/ml leupeptin, 1 μg/ml pepstatin, 200 μM pefabloc and 100 μM PMSF). For tetra-SUMOs and RNF4 variants, 1.5% sarkosyl, 0.1% Triton X-100 and 5% glycerol were added. The proteins were affinity purified using glutathione beads (Protino® Glutathione Agarose 4B, Macherey–Nagel) and eluted by thrombin cleavage. The supernatant was subjected to anion exchange chromatography and further purified by SEC (size-exclusion chromatography) into ITC buffer (50 mM Tris/HCl, pH 7.5, 150 mM NaCl, 2 mM DTT and 5% glycerol) or in crystallization buffer (20 mM Tris/HCl, pH 7.5, and 100 mM NaCl). Native SUMO2 chains were produced by in vitro SUMOylation as described recently and subsequently purified by affinity chromatography and SEC.
as §3

Assay [4] relates to mono-SUMOs and SUMO chains. Nature of the assay: ITC binding to mono-SUMOs and SUMO chains (general statements). The note with it: mono-SUMO1 and mono-SUMO2.
Excerpt: as §1, §2, §3

T1 sequence (P61956 with tags, fused parts or gaps): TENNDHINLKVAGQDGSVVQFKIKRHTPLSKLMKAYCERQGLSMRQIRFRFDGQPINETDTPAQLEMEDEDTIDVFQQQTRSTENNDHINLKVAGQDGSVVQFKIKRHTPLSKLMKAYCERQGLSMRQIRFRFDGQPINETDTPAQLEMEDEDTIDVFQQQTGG

B1: SIM domain: construct comprising the entire N-terminal part of RNF4 upstream of the RING domain (N-terminal 1–125 amino acids) (protein)
chain: MSTRKRRGGAINSRQAQKRTREATSTPEISLEAEPIELVETAGDEIVDLTCESLEPVVVDLTHNDSVVIVDERRRPRRNARRLPQDHADSCVVSSDDEELSRDRDVYVTTHTPRNARDEGATGLR
modifications: left off: GST, end not stated, cleaved
By Kd is commonly meant the constant that tells how readily two partners part at equilibrium. Regarding B1, the Kd was 17 µM at 2xSUMO1ΔN15 (di-SUMO1); 4.3 µM in assay [1]; 14 µM with 2xSUMO2ΔN11 (di-SUMO2); 19 µM at 3xSUMO2ΔN11 (tri-SUMO2) (50 mM Tris/HCl pH 7.5, 150 mM NaCl, 2 mM DTT, 5% glycerol, 25°C, averaged from two to six titrations, read-out: Dissociation constant (KD), 3xSUMO2ΔN11 (tri-SUMO2)); 1.6 µM in assay [2]; 11 µM in assay [3]. Moreover, in the assay on 3xSUMO2ΔN11 (tri-SUMO2) (tri-SUMO2), the “affinity for tri-SUMO compared with di-SUMO” value was “did not result in an increase in affinity”. Besides, the “affinity for mono-SUMOs” value in assay [4] is given as “very weak”.
